Laboratory results published in patent US20220235344A1, “TRYPSIN VARIANTS WITH IMPROVED ENZYMATIC PROPERTIES” (BIOPHARMA TRANSLATIONSINSTITUT DESSAU FORSCHUNGS GMBH, priority 2018, published 2022).
Several values for one entry are separate records, joined by “and”; a condition that tells them apart may be missing. Equal values may be shown once.

T1: Bz-PGGYRAHAG-OH (acyl donor) / H-RAHAK-OH (acyl acceptor) (Rattus norvegicus, UniProt P00763, D194K/K66E/Y45H/Y65H)
T1 construct: monomeric enzyme species (about 24 kDa); made in house; host or cells: Pichia pastoris X-33 (pPICZalphaA, secreted)
T1 sequence (P00763 24-246 Y45H/Y65H/K66E/D194K): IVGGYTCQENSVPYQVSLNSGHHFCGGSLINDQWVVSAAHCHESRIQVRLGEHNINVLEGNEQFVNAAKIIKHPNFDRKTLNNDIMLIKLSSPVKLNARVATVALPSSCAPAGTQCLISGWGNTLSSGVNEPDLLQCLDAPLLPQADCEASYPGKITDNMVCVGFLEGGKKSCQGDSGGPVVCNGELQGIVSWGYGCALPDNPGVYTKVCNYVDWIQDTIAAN

T2: Bz-PGGYRAHAG-OH (acyl donor) / H-RAHAK(DNP)-OH (acyl acceptor) (Rattus norvegicus, UniProt P00763, D194K/K66E/Y45H/Y65H)
T2 construct: made in house; host or cells: Pichia pastoris X-33
T2 sequence (P00763 24-246 Y45H/Y65H/K66E/D194K): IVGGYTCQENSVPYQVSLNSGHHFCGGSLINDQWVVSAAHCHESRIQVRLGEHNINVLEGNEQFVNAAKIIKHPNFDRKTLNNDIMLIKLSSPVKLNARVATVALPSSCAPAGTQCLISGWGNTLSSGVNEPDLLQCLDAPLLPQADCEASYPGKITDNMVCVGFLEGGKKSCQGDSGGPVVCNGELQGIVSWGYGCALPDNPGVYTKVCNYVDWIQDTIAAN


Legend:
Type in all cases: biochemical
[1] = biological target: T1, Bz-PGGYRAHAG-OH (acyl donor) / H-RAHAK-OH (acyl acceptor); assay: Model transamidation at high and low substrate concentrations, Trypsiligase II; details: for product yield (%) / kcat, AL^app (mkat/mol) / kcat, AL^app/kcat, HL^app / kcat, HL^app (mkat/mol): 0.1 mM ZnCl2
Procedure: (§1) Model transamidation reactions were performed in a solution containing 15 to 250 μM acyl donor, 2 eq. of the corresponding acyl acceptor, varying concentrations of trypsin variant, 100 mM HEPES/NaOH pH 7.8, ±0.1 mM ZnC12, 100 mM NaCl, 10 mM CaCl2) at 30° C. Acyl donor and acyl acceptor had the same amino acids in P1′-P3′ position, e.g. Bz-[…]+H-RAHAK-OH or Bz-[…]+H-RKKAK-OH. Variations are indicated. The acyl acceptor could be equipped with a 2,4-Dinitrophenyl group (DNP) at the side chain of the terminal lysine, e.g. H-RAHAK(DNP)-OH or H-RKKAK(DNP)-OH. The reactions were started by the addition of enzyme. To record the time course of product formation and/or for kinetic evaluation of the reaction several aliquots of the reaction mixture were quenched with 25% (v/v) acetic acid at distinct time points within up to 4 hours. The composition of the reaction mixture was analyzed by UPCL with method I or II, depending on the absence (method 1) or presence (method II) of a 2,4-dinitrophenyl group within the acyl acceptor (see example 1). Measurements were performed as duplicates and errors were less than 5%.
The suitability of variant A2C8 and K7F11 as transamidases was further investigated in comparison to the native Trypsiligase II. Therefore the enzymatic parameters for the catalyzed transamidation reaction were determined by a model transamidation reaction using peptide substrates with the preferred recognition motive. In addition the model transamidation reaction was performed at high (250 μM) and low (15 μM) substrate concentrations to check, whether the new biocatalysts could also efficiently catalyze the desired reaction at low substrate concentration, which is a crucial requirement for the modification of therapeutic proteins. […] It was assumed that an improved transamidation activity is reached by introducing mutations which improve the affinity of the biocatalyst for the nucleophilic peptide and/or reduce its hydrolysis activity. Therefore corresponding experimental data describing both parameters for the native Trypsiligase II as well as variant A2C8 were determined.

[2] = biological target: T2, Bz-PGGYRAHAG-OH (acyl donor) / H-RAHAK(DNP)-OH (acyl acceptor); assay: Maximum product yield of transamidation (Table 7); details: Zinc ions (100 μM): yes; two equivalents of acyl acceptor and 250 μM acyl donor
Procedure: as §1

[3] = test system: R1-YRKK-R2 (Bz-PGGYRKKAG-OH) / H-RKKAK(DNP)-OH; assay: Zinc dependence of the transamidation reaction, A2C8 and K7F11, YRKK; details: 100 μM acyl donor, 200 μM acyl acceptor
Procedure: as §1

Row | Molecule | product yield (%) ([1]; [Substrate] 15 μM Bz-PGGYRAHAG-OH, 30 μM H-RAHAK-OH) | kcat, AL^app (mkat/mol) ([1]; [Substrate] 15 μM) | kcat, AL^app/kcat, HL^app ([1]; [Substrate] 15 μM) | kcat, HL^app (mkat/mol) ([1]; [Substrate] 15 μM) | product yield (%) ([1]; [Substrate] 250 μM Bz-PGGYRAHAG-OH, 500 μM H-RAHAK-OH) | kcat, AL^app (mkat/mol) ([1]; [Substrate] 250 μM) | kcat, AL^app/kcat, HL^app ([1]; [Substrate] 250 μM) | kcat, HL^app (mkat/mol) ([1]; [Substrate] 250 μM) | turnover rate of hydrolysis relative to aminolysis ([1]; substrate concentration 15 μM) | product yield (%) [2] [%] | kcat, AL^app + Zn^2+ (mkat/mol) ([3]; 0.1 mM ZnCl2) | product yield + Zn^2+ (%) ([3]; 0.1 mM ZnCl2) | kcat, AL^app − Zn^2+ (mkat/mol) ([3]; absence of zinc ions) | product yield − Zn^2+ (%) ([3]; absence of zinc ions)
1 | Trypsiligase II (trypsin variant Y39H/Y59H/K60E/D189K) (protein) IVGGYTCQENSVPYQVSLNSGHHFCGGSLINDQWVVSAAHCHESRIQVRLGEHNINVLEGNEQFVNAAKIIKHPNFDRKTLNNDIMLIKLSSPVKLNARVATVALPSSCAPAGTQCLISGWGNTLSSGVNEPDLLQCLDAPLLPQADCEASYPGKITDNMVCVGFLEGGKKSCQGDSGGPVVCNGELQGIVSWGYGCALPDNPGVYTKVCNYVDWIQDTIAAN | 3% and 3.2% | 0.33 | 0.1 | 2.84 | 17% and 17.3% | 14.40 | 0.9 | 16.00 | tenfold higher turnover rate | 18.1 |  |  |  | 
2 | A2C8: Trypsiligase II + H40F, A55A, R96E, K97D, L99F, N143E, E151Y, S190V, Q192A, S214G, G219Q, A221T (protein) IVGGYTCQENSVPYQVSLNSGHFFCGGSLINDQWVVSAAHCHESRIQVRLGEHNINVLEGNEQFVNAAKIIKHPNFDEDTFNNDIMLIKLSSPVKLNARVATVALPSSCAPAGTQCLISGWGETLSSGVNYPDLLQCLDAPLLPQADCEASYPGKITDNMVCVGFLEGGKKVCAGDSGGPVVCNGELQGIVGWGYQCTLPDNPGVYTKVCNYVDWIQDTIAAN |  |  |  |  |  |  |  |  |  |  | 18.04 | 59.0 | 17.7 | 59.7
